Test results from patent publication US20210246166A1 (Bayer, published 2021).
Bridge positions count the residues as written; N and C are the ends. Square brackets hold non-standard residues; d marks the D form. Ends that are not written are not given here. Oic = O=C(O)[C@@H]1C[C@@H]2CCCC[C@@H]2N1; tBuAla = CC(C)(C)C[C@H](N)C(=O)O; Pen = CC(C)(S)[C@H](N)C(=O)O; NMeC = CN[C@@H](CS)C(=O)O; Orn = NCCC[C@H](N)C(=O)O; Dap = NC[C@H](N)C(=O)O; Sar = CNCC(=O)O

T1: Recombinant human MASP1 enzyme (fragment corresponding to amino acids 297-699, C-terminal His Tag) (human, UniProt P48740 297-699)
T1 sequence: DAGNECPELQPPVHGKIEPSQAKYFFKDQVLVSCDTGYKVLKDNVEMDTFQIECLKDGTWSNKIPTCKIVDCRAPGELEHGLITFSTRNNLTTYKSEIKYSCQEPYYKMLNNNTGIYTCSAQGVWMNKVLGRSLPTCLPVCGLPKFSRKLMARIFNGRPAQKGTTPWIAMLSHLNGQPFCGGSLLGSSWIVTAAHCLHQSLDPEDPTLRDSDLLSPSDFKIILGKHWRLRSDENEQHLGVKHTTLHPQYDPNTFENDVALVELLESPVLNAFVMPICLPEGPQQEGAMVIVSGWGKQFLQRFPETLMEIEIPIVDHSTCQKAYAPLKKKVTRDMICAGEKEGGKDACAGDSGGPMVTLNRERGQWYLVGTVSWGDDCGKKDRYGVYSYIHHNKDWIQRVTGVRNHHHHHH


Columns and labels:
[1] = biological target: T1, Recombinant human MASP1 enzyme …; assay: cell-based or functional assay
[2] = biological target: Recombinant human MASP2 enzyme (fragment corresponding to amino acids 297-686, C-terminal His Tag) (human, UniProt O00187 297-686); assay: cell-based or functional assay
Recombinant human MASP2 enzyme (fragment corresponding to amino acids 297-686, C-terminal His Tag), sequence (O00187 other isoform, or with tags, fused parts or gaps limits assumed): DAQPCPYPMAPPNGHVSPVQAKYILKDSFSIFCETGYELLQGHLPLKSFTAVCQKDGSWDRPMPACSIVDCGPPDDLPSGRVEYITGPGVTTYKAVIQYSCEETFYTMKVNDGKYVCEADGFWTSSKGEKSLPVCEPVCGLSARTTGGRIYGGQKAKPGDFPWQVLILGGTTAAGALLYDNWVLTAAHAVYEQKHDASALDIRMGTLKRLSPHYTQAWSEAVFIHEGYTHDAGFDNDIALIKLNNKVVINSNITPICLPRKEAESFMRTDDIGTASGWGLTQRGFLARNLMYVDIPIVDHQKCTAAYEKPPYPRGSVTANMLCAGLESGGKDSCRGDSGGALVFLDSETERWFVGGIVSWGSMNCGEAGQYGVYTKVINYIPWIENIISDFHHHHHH

| Binder | human MASP1 IC50 [1] | human MASP2 IC50 [2] |
| --- | --- | --- |
| [Sar]ICSRSLP[Oic]I[Pen]I-OH (disulfide 3-11; N-terminus assumed; SMILES CC[C@H](C)[C@H](NC(=O)[C@H]1NC(=O)[C@H]([C@@H](C)CC)NC(=O)[C@@H]2C[C@@H]3CCCC[C@@H]3N2C(=O)[C@@H]2CCCN2C(=O)[C@H](CC(C)C)NC(=O)[C@H](CO)NC(=O)[C@H](CCCNC(=N)N)NC(=O)[C@H](CO)NC(=O)[C@@H](NC(=O)[C@@H](NC(=O)CNC)[C@@H](C)CC)CSSC1(C)C)C(=O)O) [((N-Me)G)-IC+SRSLP-(Oic)-I-(Pen)+I-OH] | 4.9 nM | 550 nM |
| [Dap]ICSRS[tBuAla]PPI[Pen]I-NH2 (disulfide 3-11; N-terminus assumed; SMILES CC[C@H](C)[C@H](NC(=O)[C@H]1NC(=O)[C@H]([C@@H](C)CC)NC(=O)[C@@H]2CCCN2C(=O)[C@@H]2CCCN2C(=O)[C@H](CC(C)(C)C)NC(=O)[C@H](CO)NC(=O)[C@H](CCCNC(=N)N)NC(=O)[C@H](CO)NC(=O)[C@@H](NC(=O)[C@@H](NC(=O)[C@@H](N)CN)[C@@H](C)CC)CSSC1(C)C)C(N)=O) [(Dap)-IC+SRS-((tBu)A)-PPI-(Pen)+I-NH2] | 5.1 nM | 81 nM |
| [Orn]ICSRS[tBuAla]PPICI-NH2 (disulfide 3-11; N-terminus assumed; SMILES CC[C@H](C)[C@H](NC(=O)[C@@H]1CSSC[C@H](NC(=O)[C@@H](NC(=O)[C@@H](N)CCCN)[C@@H](C)CC)C(=O)N[C@@H](CO)C(=O)N[C@@H](CCCNC(=N)N)C(=O)N[C@@H](CO)C(=O)N[C@@H](CC(C)(C)C)C(=O)N2CCC[C@H]2C(=O)N2CCC[C@H]2C(=O)N[C@@H]([C@@H](C)CC)C(=O)N1)C(N)=O) [(Orn)-IC+SRS-((tBu)A)-PPIC+I-NH2] | 4.8 nM | 170 nM |
| AICSRSLP[Oic]I[NMeC]IPD-NH2 (disulfide 3-11; N-terminus assumed; SMILES CC[C@H](C)[C@H](NC(=O)[C@H](C)N)C(=O)N[C@H]1CSSC[C@@H](C(=O)N[C@H](C(=O)N2CCC[C@H]2C(=O)N[C@@H](CC(=O)O)C(N)=O)[C@@H](C)CC)N(C)C(=O)[C@H]([C@@H](C)CC)NC(=O)[C@@H]2C[C@@H]3CCCC[C@@H]3N2C(=O)[C@@H]2CCCN2C(=O)[C@H](CC(C)C)NC(=O)[C@H](CO)NC(=O)[C@H](CCCNC(=N)N)NC(=O)[C@H](CO)NC1=O) [AIC+SRSLP-(Oic)-I-((N-Me)C)+IPD-NH2] | 4.8 nM | 245 nM |
| AICSRS[tBuAla]PP[(2S)‑2‑(Amino)‑2‑((1S,3S)-3-hydroxycyclohexyl)acetic acid][NMeC]IPD-NH2 (disulfide 3-11) [AIC+SRS-((tBu)A)-PP-((2S)-2-(Amino)-2-[(1S,3S)-3-hydroxycyclohexyl]acetic acid)-((N-Me)C)+IPD-NH2] | 4.7 nM | 1100 nM |
| FICSRS[tBuAla]PPI[NMeC]I-NH2 (disulfide 3-11; N-terminus assumed; SMILES CC[C@H](C)[C@H](NC(=O)[C@@H]1CSSC[C@H](NC(=O)[C@@H](NC(=O)[C@@H](N)Cc2ccccc2)[C@@H](C)CC)C(=O)N[C@@H](CO)C(=O)N[C@@H](CCCNC(=N)N)C(=O)N[C@@H](CO)C(=O)N[C@@H](CC(C)(C)C)C(=O)N2CCC[C@H]2C(=O)N2CCC[C@H]2C(=O)N[C@@H]([C@@H](C)CC)C(=O)N1C)C(N)=O) [FIC+SRS-((tBu)A)-PPI-((N-Me)C)+I-NH2] | 4.5 nM | 170 nM |
| [dA]ICSRSLP[Oic]I[Pen]IP-OH (disulfide 3-11; N-terminus assumed; SMILES CC[C@H](C)[C@H](NC(=O)[C@@H](C)N)C(=O)N[C@H]1CSSC(C)(C)[C@@H](C(=O)N[C@H](C(=O)N2CCC[C@H]2C(=O)O)[C@@H](C)CC)NC(=O)[C@H]([C@@H](C)CC)NC(=O)[C@@H]2C[C@@H]3CCCC[C@@H]3N2C(=O)[C@@H]2CCCN2C(=O)[C@H](CC(C)C)NC(=O)[C@H](CO)NC(=O)[C@H](CCCNC(=N)N)NC(=O)[C@H](CO)NC1=O) [aIC+SRSLP-(Oic)-I-(Pen)+IP-OH] | 4.9 nM | 200 nM |
| YICSRS[tBuAla]PPI[NMeC]I-NH2 (disulfide 3-11; N-terminus assumed; SMILES CC[C@H](C)[C@H](NC(=O)[C@@H]1CSSC[C@H](NC(=O)[C@@H](NC(=O)[C@@H](N)Cc2ccc(O)cc2)[C@@H](C)CC)C(=O)N[C@@H](CO)C(=O)N[C@@H](CCCNC(=N)N)C(=O)N[C@@H](CO)C(=O)N[C@@H](CC(C)(C)C)C(=O)N2CCC[C@H]2C(=O)N2CCC[C@H]2C(=O)N[C@@H]([C@@H](C)CC)C(=O)N1C)C(N)=O) [YIC+SRS-((tBu)A)-PPI-((N-Me)C)+I-NH2] | 4.5 nM | 68 nM |
| [Sar]ICSRSLP[Oic]I[Pen]I[5‑Azaspiro(2.4)heptane‑1‑carboxylic acid]-OH (disulfide 3-11) [((N-Me)G)-IC+SRSLP-(Oic)-I-(Pen)+I-((5-Azaspiro[2.4]heptane-1-carboxylic acid)-OH] | 5.1 nM | 100 nM |
| [Sar]ICSRSLP[Oic]I[Pen]IPE-NH2 (disulfide 3-11; N-terminus assumed; SMILES CC[C@H](C)[C@H](NC(=O)CNC)C(=O)N[C@H]1CSSC(C)(C)[C@@H](C(=O)N[C@H](C(=O)N2CCC[C@H]2C(=O)N[C@@H](CCC(=O)O)C(N)=O)[C@@H](C)CC)NC(=O)[C@H]([C@@H](C)CC)NC(=O)[C@@H]2C[C@@H]3CCCC[C@@H]3N2C(=O)[C@@H]2CCCN2C(=O)[C@H](CC(C)C)NC(=O)[C@H](CO)NC(=O)[C@H](CCCNC(=N)N)NC(=O)[C@H](CO)NC1=O) [((N-Me)G)-IC+SRSLP-(Oic)-I-(Pen)+IPE-NH2] | 5 nM | 200 nM |
| [dA]ICSRSLP[Oic]I[Pen]IPQ-OH (disulfide 3-11; N-terminus assumed; SMILES CC[C@H](C)[C@H](NC(=O)[C@@H](C)N)C(=O)N[C@H]1CSSC(C)(C)[C@@H](C(=O)N[C@H](C(=O)N2CCC[C@H]2C(=O)N[C@@H](CCC(N)=O)C(=O)O)[C@@H](C)CC)NC(=O)[C@H]([C@@H](C)CC)NC(=O)[C@@H]2C[C@@H]3CCCC[C@@H]3N2C(=O)[C@@H]2CCCN2C(=O)[C@H](CC(C)C)NC(=O)[C@H](CO)NC(=O)[C@H](CCCNC(=N)N)NC(=O)[C@H](CO)NC1=O) [aIC+SRSLP-(Oic)-I-(Pen)+IPQ-OH] | 4.9 nM | 140 nM |
| [(2S)‑2((Amino)-2-(tetrahydro-2H-pyran-4-yl))acetic acid]ICSRSLP[Oic]ICI-OH (disulfide 3-11) [((2S)-2[(Amino)-2-(tetrahydro-2H-pyran-4-yl)]acetic acid)-IC+SRSLP-(Oic)-IC+I-OH] | 4.7 nM | 200 nM |
| [dA]ICSRSLP[Oic]I[Pen]IPE-NH2 (disulfide 3-11; N-terminus assumed; SMILES CC[C@H](C)[C@H](NC(=O)[C@@H](C)N)C(=O)N[C@H]1CSSC(C)(C)[C@@H](C(=O)N[C@H](C(=O)N2CCC[C@H]2C(=O)N[C@@H](CCC(=O)O)C(N)=O)[C@@H](C)CC)NC(=O)[C@H]([C@@H](C)CC)NC(=O)[C@@H]2C[C@@H]3CCCC[C@@H]3N2C(=O)[C@@H]2CCCN2C(=O)[C@H](CC(C)C)NC(=O)[C@H](CO)NC(=O)[C@H](CCCNC(=N)N)NC(=O)[C@H](CO)NC1=O) [aIC+SRSLP-(Oic)-I-(Pen)+IPE-NH2] | 5 nM | 150 nM |
